Source: the supplement of paper PMC9170038

System: MS2 coat protein
Test: apparent KD of MS2 coat protein, switch ON state; designed switch direction (-1 OFF switch, 1 ON switch): -1; higher = weaker reporter binding
Conditions: FMN input: 0 or 200 uM; Eterna round: R93 (includes R88 designs)
Method in brief: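 Illumina sequencing clusters served as templates for on-chip transcription of the designed RNA switches. SNAP-549-labelled MS2 coat protein was then titrated in twofold steps from 0.7 or 1.5 nM to 3 µM, allowing 0.8–1.5 h per step at first and 10–20 min per step later. The buffer held 100 mM Tris-HCl pH 7.5, 80 mM KCl and 4 mM MgCl2, without or with constant ligand. Apparent KD is the median per design of normalised cluster binding-curve fits.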

| Sequence | apparent KD of MS2 coat protein [nM] |
| --- | --- |
| AAGAACCGAGGAUAUACUAAAGAAAUGAAAAGAAAUAAAGAACAUGAGGAUCACCCAUGUAGAAGGCGGAAGAA [Nebefawre] | 27.4 |
| AACAUGUCAGGAUAUGCGAAGGCGUCUGACAGACGAGGCUAGCAGAAGGGACAUGAGGAUCACCCAUGUAAAAA [Mod of Power Strip by EINando888 - changed 3 and 30 to C] | 111 |
| AAAAAGGGAGGAUAUGCAAAGGGAAAGGGAAAGGGAAAGGGACAUGAGGAUCACCCAUGUAGAAGGCUCAAAAA [scarecrow2] | 56.1 |
| AAAUUGUCAGGAUAUCUUAGAACUCUAAAAUAGAGGAGCUAAGAGAAGGGACAUGAGGAUCACCCAUGUAAAAC [May 89] | 86.5 |
| AAAAAGGCAGGAUAUACAAAAAAAAAAAAAAAAAAGGAGGGACAUGAGGAUCACCCAUGUAGAAGGGCCAAAAA [Kai Theodor Erikson] | 97.4 |
| ACCUGACAUGAGGAUCACCCAUGUCAGGAUAUGACUUCGAAAAAAAAAAAAAACGAUGUCAGAAGGGACAUGGG [Design 70: Sub-opt P] | 15.4 |
| AACAGUACAGGAUAUACAUGAGGAUCACCCAUGUGAAAAUUAAGUGGCGUACCACAAGGUAGAAGGGUACUGGA [Moding Maslow Revisited (73) 27] | 32.7 |
| UAAAGACAUGAGGAUCACCCAUGUGAGGAUAUCGGAGGUGACGGAGCAUCGAGUUCGGCGAGAAGGCGCAGGAA [JR_Exc001_Sub409] | 67.2 |
| AACUAGUCAGGAUAUACGAACAUGUCAAAAAACAUAAAGGGACAUGAGGAUCACCCAUGUAGAAGGGACUAACA [74%, Web mod - With 5 less G's] | 299 |
| AAGAAGUCAGGAUAUCGAAGACAGACGAAAAGUCUGUCAAACGAGAAGGGACAUGAGGAUCACCCAUGUAAGAA [What have we learned so far? 64% 1] | 44.9 |
| AACAGUACAGGAUAUACAUGAGGAUCACCCAUGUAAAAAUAAUAAAAGGGAAAAACUCGUAGAAGGGUACUGGA [Moding Maslow revisited (73) 16] | 63.2 |
| AACAGACAUGAGGAUCACCCAUGUGAGGAUAUGGCAAUCGAUAGAACUAGAAUGACAACCAGAAGGCACAGCAA [JR_Exc001_Sub004] | 77.6 |
| AUCUCGUCAGGAUAUGACUACAUAAAAAAAAAAAAAUGUAGUCAGAAGGGACAUGAGGAUCACCCAUGUACCAA [HSL_Exclusion 4 64% 3] | 21.9 |
| GAAAAGUGAGGAUAUGCGAAGGCGUCUGAUAGACGAGGCUAGCAGAAGGCACAUGAGGAUCACCCAUGUGGGAA [Mat - Exclusion 4 - Eli mod - D91] | 71.6 |
| AAAAGCUUAGGAUAUACACAAAAUAAAGGAGUGAUAUCAGAACAUGAGGAUCACCCAUGUAGAAGGAAGAAAUA [Ceerle] | 65.3 |
| UUCAAGUGAGGAUAUACGAAUAGUAAGUAAGUAUAACAGACGUAGAAGGCACAUGAGGAUCACCCAUGUAAAUA [JR_Exc004_Sub304] | 25.8 |
| AGUGAGUCAGGAUAUGACUGAAGAAUAAAAGAAAUAACAAGUCAGAAGGGACAUGAGGAUCACCCAUGUACACA [May 59] | 30.9 |
| AGCUAGUCAGGAUAUACGAACAAGUCAAAAGACGAGAACGGACAUGAGGAUCACCCAUGUAGAAGGGACUAGCA [Diamond 7] | 16.1 |
| AUCAUGUAAGGAUAUACAAGAAAAGAAAAGAAAGAAAAGAAGUAGAAGGUACAUGAGGAUCACCCAUGUAAGAA [EteRNA is fun!] | 61 |
| AACUGACAUGAGGAUCACCCAUGUCAGGAUAUGACUUGACGAAAAAAAACAUGUCAUGUCAGAAGGGACAUGGA [Design 89: Sub-opt Z] | 26.4 |
| AAUAAACAUGAGGAUCACCCAUGUGAGGAUAUGGUAUAAUAAGGACAGUAAUGAUAAACCAGAAGGCACAAAUA [JR_Exc001_Sub1102] | 30.5 |
| AAGAAGUGAGGAUAUACAUGAGGAUCACCCAUGUAAAAGAAAGAAGGGAAAGAGAAAAGUAGAAGGCACAAGAA [Usermaatre-setepenamun Osorkon III] | 28.5 |

| Sequence | apparent KD of MS2 coat protein [nM] |
| --- | --- |
| AACAGUACAGGAUAUACAUGAGGAUCACCCAUGUGAAAAUUAAGUGGAAAACCACAAAGUAGAAGGGUACUGAA [Mat - Exclusion 3 - Eli mod - D58] | 21.4 |
| AAGAAGUGAGGAUAUCGAAGACAGACGAAAAGUCUGUCAAACGAGAAGGCACAUGAGGAUCACCCAUGUGGAAG [Mat - Exaclusion 4 - Eli mod - D79] | 30.6 |
| AAAGAUACAGGAUAUACAUGAGGAUCACCCAUGUGAGACCAAAAAUGGGAAAAAGAAAGUAGAAGGGUAUAAAA [Ex 3 May 36] | 39.9 |
| GAAAUACAUGAGGAUCACCCAUGUGAGGAUAUGCUAUGGAAAUAAAAAAUAAAACAUAGCAGAAGGUACAAAAG [Mat - Exclusion 1 - Eli mod - D43] | 21.8 |
| AAAAACUGAGGAUAUACGAAAAAAAAAAAAAAAAAAAAAAAACAUGAGGAUCACCCAUGUAGAAGGCAGAAAAA [exclusion 02 - A] | 41.4 |
| GGAGGCGAAGGAUAUACAUGAGGAUCACCCAUGUGAGAGAAAAAAGUGAGAAAGAAAAGUAGAAGGUCGUUUCG [salish99-ex3-128] | 43.5 |
| AACAUGUGAGGAUAUUUAAGAAAAGAAAAGAAAGAAAAGAAAAAGAAGGCACAUGAGGAUCACCCAUGUAAGAA [EteRNA is fun!] | 24.1 |
| AAGAACGCAGGAUAUACAUGAGGAUCACCCAUGUAAAAGAAAGAGGGAAAAGAGAAAAGUAGAAGGGCGAAGAA [Setepenre-meryamun Ptolemy I Soter] | 37 |
| GCUUGGCAAGGAUAUACAUGAGGAUCACCCAUGUGAGAGAAAAAAGUGAGAAAGAAAAGUAGAAGGUGUUGAGG [salish99-ex3-76] | 44.4 |
| AAAUAGCAAGGAUAUACAUGAGGAUCACCCAUGUAAGGAUGGUAAGUAUUAGAAGAAAGUAGAAGGUGCAAAUA [Ex 3 Tesla 5] | 33.6 |
| AAUAAACAUGAGGAUCACCCAUGUCAGGAUAUGCAUCUAACCUAAUAACAUAAAUACAGCAGAAGGGACUAAUA [JR_Exc001_Sub602] | 26.8 |
| GAAAGGGCAGGAUAUGCAGAGAGAGAGAGAGAGAGAGAGAAACAUGAGGAUCACCCAUGUAGAAGGGCCGAAAG [salish99-ex2-07] | 30.9 |
| AAGAACCAAGGAUAUACAUGAGGAUCACCCAUGUAAAAGAAAGAAAAGGGAAAGAAAAGUAGAAGGUGGAAGAA [Userkheperure Seti II] | 25.7 |
| AAAAAGUAAGGAUAUACAAGAGAAAACACAAAAAAAAAAAAACAUGAGGAUCACCCAUGUAGAAGGUACAAAAA [Diamond 82] | 27.5 |
| GGAGGCGUAGGAUAUACAUGAGGAUCACCCAUGUGAGAGAAAAAAGUGAGAAAGAAAAGUAGAAGGACGUUUCG [salish99-ex3-127] | 45.4 |
| UCCACACAUGAGGAUCACCCAUGUGAGGAUAUCUAGAAAACCUCAUGUAAAAAAAUCUAGAGAAGGCACAUGAA [Design 92: Pseudoknot B] | 24 |
| AGCAAGUCAGGAUAUACGAAUAAGACAAAAGACGUGAAGGGACAUGAGGAUCACCCAUGUAGAAGGGACAAGCA [LROPPY Exclusion 2 - v01_mod Fisker] | 80.9 |
| GAGGUAUGAGGAUAUACAUAGAUACAGACACAUGUUCAAGUACAUGAGGAUCACCCAUGUAGAAGGCAUAUAUC [Mat - Same state - Mayanna Mod - D105] | 22 |
| UCCAGACAUGAGGAUCACCCAUGUCAGGAUAUCUAGAAAACCUCAUGUAAAAAAAACUAGAGAAGGGAUAUGGA [Design 95: Pseudoknot E] | 15.2 |
| AAAAAGCGAGGAUAUACAUGAGGAUCACCCAUGUCAAAAGAAUAUAAAGAAAUAGGAAGUAGAAGGCGCAAAAA [Ex 3 #3] | 67.1 |
| AAGAAGUAAGGAUAUGCUGCUCGUCACAAAAGUGAUGAGUAGCAGAAGGUACAUGAGGAUCACCCAUGUAAAUA [Opal 32] | 25.3 |
| CUCUUGUAAGGAUAUCACCACACAAAAAAAAAAAAGUGUGGUGAGAAGGUACAUGAGGAUCACCCAUGUACUAA [Banishment 12 - Jieux - Exclusion 4] | 23.6 |
